# Literature values in PMC3281059.
# Target: actin monomer (UniProt P68133)
substance,measurement,value
WCA domain WCA (from UniProt O00401),Kd,600 nM
